Molecular target: T1, human plasminogen, P00747
T1 chain: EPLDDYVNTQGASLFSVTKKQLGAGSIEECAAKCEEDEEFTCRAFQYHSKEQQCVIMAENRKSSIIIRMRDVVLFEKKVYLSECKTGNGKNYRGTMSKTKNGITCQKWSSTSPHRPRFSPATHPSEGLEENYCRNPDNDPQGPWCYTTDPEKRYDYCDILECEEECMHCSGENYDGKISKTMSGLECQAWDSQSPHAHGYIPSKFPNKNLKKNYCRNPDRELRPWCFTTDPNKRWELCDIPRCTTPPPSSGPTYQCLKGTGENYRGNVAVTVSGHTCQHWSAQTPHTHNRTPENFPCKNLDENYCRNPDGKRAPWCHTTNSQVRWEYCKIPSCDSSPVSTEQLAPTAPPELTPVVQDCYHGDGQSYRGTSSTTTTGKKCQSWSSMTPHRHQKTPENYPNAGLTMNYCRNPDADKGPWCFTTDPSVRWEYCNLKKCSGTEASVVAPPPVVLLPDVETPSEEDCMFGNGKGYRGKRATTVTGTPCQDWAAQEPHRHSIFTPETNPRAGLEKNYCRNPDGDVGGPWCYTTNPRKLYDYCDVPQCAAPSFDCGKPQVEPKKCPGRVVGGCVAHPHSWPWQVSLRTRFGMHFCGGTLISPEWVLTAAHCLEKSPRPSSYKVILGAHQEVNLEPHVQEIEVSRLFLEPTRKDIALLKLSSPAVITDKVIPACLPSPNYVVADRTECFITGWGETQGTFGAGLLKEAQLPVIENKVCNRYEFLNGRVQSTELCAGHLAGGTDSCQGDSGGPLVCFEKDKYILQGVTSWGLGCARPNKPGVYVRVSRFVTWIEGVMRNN

B1: recombinant staphylokinase (SAK) produced in E. coli from plasmid pOXYSAK-1 (protein)
chain: SSSFDKGKYKKGDDASYFEPTGPYLMVNVTGVDGKGNELLSPHYVEFPIKPGTTLTKEKIEYYVEWALDATAYKEFRVVELDPSAKIEVTYYDKNKKKEETKSFPITEKGFVVPDLSEHIKNPGFNLITKVVIEKK
Specific activity of purified SAK protein: 1.75 U/µg protein

From patent US20050019862
